Data taken from patent publication US20230213524A1 (published 2023).

How the values were obtained:
[1] = biological target: T1, human folate receptor 1 (FOLR1) on cells (human, UniProt P15328 25-234); assay: flow cytometry on T47D cells and ELISA (binding affinity 'by both methods')
T1 construct: On the cell surface: 300-19 cells transfected with human FOLR1 (NCBI NP_057937), or endogenous on KB, T47D and OVCAR3 cells; also called huFOLR1; folate receptor alpha
Procedure: To assure that materials were continuously performing as expected, all antibodies were screened for binding by both ELISA and flow cytometry methods known in the art. Flow cytometry was performed using FOLR1 expressing human T47D cells cultured using in-vitro cell culture techniques known in the art. The antibodies were bound to these cells and detected indirectly using a goat anti-murine Alexa-fluor 488 detection antibody on a FACScalibur machine (FIGS. 6A-B).

[2] = biological target: human folate receptor 1 (FOLR1) on cells (human) (UniProt P15328); assay: laser scanning cytometry on KB cells pre-treated with M9346A or vehicle, then stained with commercial FRA
[3] = biological target: T2, FOLR2 (UniProt P14207 17-230, limits assumed); assay: commercially available ELISA kit
T2 construct: also called folate receptor 2
Source text: (§1) It is important that the assay detect only FOLR1, and not FOLR2 or especially FOLR3 (commonly found as a shed protein in human plasma), since Mov19 is specific for only FOLR1. To determine this, the top four clones were screened by commercially available ELISA kits (FIGS. 7A-B).

[4] = biological target: T3, FOLR3 (UniProt P41439 23-245, limits assumed); assay: commercially available ELISA kit
T3 construct: also called folate receptor 3
Source text: as §1

T1 sequence (P15328 25-234 limits assumed): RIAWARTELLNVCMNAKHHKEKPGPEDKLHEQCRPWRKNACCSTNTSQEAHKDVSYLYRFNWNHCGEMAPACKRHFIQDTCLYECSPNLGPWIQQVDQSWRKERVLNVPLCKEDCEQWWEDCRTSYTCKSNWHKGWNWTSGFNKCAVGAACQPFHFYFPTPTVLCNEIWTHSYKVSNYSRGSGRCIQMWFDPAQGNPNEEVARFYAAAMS
Chain of human folate receptor 1 (FOLR1) on cells (human) (P15328 25-234 limits assumed): as above
T2 sequence (P14207 17-230 limits assumed): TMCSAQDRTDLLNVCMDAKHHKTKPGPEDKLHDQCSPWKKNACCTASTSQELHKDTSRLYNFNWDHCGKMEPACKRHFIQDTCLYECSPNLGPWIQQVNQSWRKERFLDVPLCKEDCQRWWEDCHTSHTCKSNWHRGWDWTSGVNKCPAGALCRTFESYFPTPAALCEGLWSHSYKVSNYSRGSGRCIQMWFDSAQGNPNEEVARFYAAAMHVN
T3 sequence (P41439 23-245 limits assumed): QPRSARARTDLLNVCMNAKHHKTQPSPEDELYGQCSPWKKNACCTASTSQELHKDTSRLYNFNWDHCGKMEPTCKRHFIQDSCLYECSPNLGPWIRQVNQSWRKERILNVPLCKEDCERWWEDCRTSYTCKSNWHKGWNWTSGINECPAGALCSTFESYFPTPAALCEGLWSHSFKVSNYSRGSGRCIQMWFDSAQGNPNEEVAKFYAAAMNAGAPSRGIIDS

Kd [1] [nM]	drop in FRA signal [2] [%]	binding result [3]	binding result [4]	Binder
1 to 3				muFR1-13 (antibody, mouse IgG2b, kappa, V domains shown, Murine monoclonal purified from hybridoma supernatant; Used biotinylated as the detection antibody in the ELISAs and unlabeled in the cytometry assays; also called muFR1-13b; Biotinylated FR1-13) VH: QVQLKESGPDLVAPSQSLSITCTVSGFSLSRYSVHWIRQPPGKGLEWLGMIWSGGNTDYNSVFKSRLNITKDNSKSQVFLKMNSLQTDDTAIYYCATFDGKVSWFAYWGQGTLVTVSA VL: SIVMTQTPKFLLVSTGDRFTITCKASQSVSNDVLWYQQKPGQSPKLLIYYAYNRYSGVPDRFTGSGYGTDFTFTITTVQSEDLAVYFCQQDHSSPFTFGSGTKLEIKR
2 to 4				muFR1-9 (antibody, mouse IgG1, kappa, V domains shown, Murine monoclonal purified from hybridoma supernatant; Capture antibody of the shed antigen ELISA; also called murine FR1-9) VH: QVQLVESGGGLVQPGGSRKLSCAASGFTFSSFGMHWVRQAPEKGLEWVAYISSGSSTFYYADTVKGRFTISRDNPKNTLFLQMTSLRSEDTAMYYCAKELTGTFAYWGQGTLVTVSA VL: DIVLTQSPATLSVTPGDSVSLSCRASQSINNNLHWYQQKSHESPRLLIKYASQSISGIPSRFSGSGSGTDFTLSINSVETEDFGMYFCQQSNSWPQVTFGAGTKLELKR
	66	no binding	no binding	huMov19 (M9346A) (antibody, V domains shown, also called IMGN853 antibody; antibody component of IMGN853) VH: QVQLVQSGAEVVKPGASVKISCKASGYTFTGYFMNWVKQSPGQSLEWIGRIHPYDGDTFYNQKFQGKATLTVDKSSNTAHMELLSLTSEDFAVYYCTRYDGSRAMDYWGQGTTVTVSS VL: DIVLTQSPLSLAVSLGQPAIISCKASQSVSFAGTSLMHWYHQKPGQQPRLLIYRASNLEAGVPDRFSGSGSKTDFTLTISPVEAEDAATYYCQQSREYPYTFGGGTKLEIKR
